From the nanobody polyreactivity screen of Harvey et al. (2022)

test: yeast display, Sf9 membrane polyspecificity reagent, FACS + sequencing; frameworks hold sequencing errors
Procedure, shortened: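 In a synthetic yeast display library (Saccharomyces cerevisiae BJ5465), nanobody expression was induced with galactose for 36–48 hours. FACS gates were set low and high (top ~1%) using anti-HA fluorescence for expression and streptavidin fluorescence for binding of the Sf9 membrane reagent. Each polyreactivity label is drawn from the gate of origin.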

Sequence	polyreactivity (PSR sort gate)
QVQLVESGGGLVQAGGSLRLSCAASGRTFDINAMGWYRQAPGKERELVAAISGRGGRTYYADSVKGRFTISRDNAKNTVYLQMNSLKPEDSAVYYCAARAQWSSLEYWGQGTQVTVSS	high polyreactivity
QVQLVESGGGLVQAGGSLRLSCAASGGTRAHNAMGLYRQAPGKERELVAAISWRGGSTYYADSVKGRCTISRDNAKNTVYLQMNSLKPEDTAVYYCAKEQYVPDRPSFKNLNTYDYWGQGTQVTVSS	low polyreactivity
QVQLVESGGGLVQARGSLRLSCAATGSTFDKYAMGRYRQAPGKERELVAAISSSGTRTYYADSVKGRFTISRDNAKITVYLQMNSLKPEDTAVYYCDTGGSNKYYYWGQGTQVTVSS	high polyreactivity
QVQLVESGGGLVQAGGSLRLSCAASGFTFVINDMGWNRQAPGKERELVADITSGGDTYYADSVKGRFTISRDNAKNTVDLQMNSLKPEDTAVYYCAADIYPDWIYLLYGYWGQGTQVTVSS	low polyreactivity
QVPIVESGGGLVQAGGSLRLSCAAYGIIFRLNAMGWNTQAPGKERELVAAITRRGGTTYYADSVKGRFTISRDNAKNTVYLQMNSLKPEDTAVYYCNTFYYWQYDWGQGTQVTESS	high polyreactivity
QVQLVESGGGLVQAGGSLRLSCAASGSTYVQYAMGWYRKAPGKERELVPVISYSGGSTYYADSVKGRFTISRDNAKNTVYLQMNSLKPEDTAVYYCAAVYGGGHRKMDYWGQGTQVTVSS	low polyreactivity
QVQLVESGGGLVQAGGSLRLSCAASGFIFVKNAMGWYRQAPGKERELVAVISTRGGRTYYADSVKGRFTISRDNAKNTVYLQMNSMKPEDTAVYYCAAGDQYKTRRNGYGYWGQGTQVTVSS	high polyreactivity
QVQLVESGGGLVQAGGSLRLSCAASGFTFYGYGMGWYRQAPGKERELVAGISSGGGSTIYADSVKGRFTISRDNAKNTVYLQMNSLKPEDTAVYYCAADYWPYSYDTYPAEFDYWGQGTQVTVSS	low polyreactivity
QVQLVESGGGLVQAGGSLRLSCAASGFTFHYYAMGWYRQAPGKERELVAAISRGGGNTYYADSVKGRFTISRDNAKNTVYLQMNSLKPEDTAVYYCAADSKYRFSHGLDYWGQGTQVTVSS	high polyreactivity
QVQLVESGGGLVQAGGSLRLSCAASGSIFSYYTMGWYRQAPGQERELVAAISRRGGRTYYADSVKGRFTISRDNAKNTVYLQMNSLKPEDTAVYYCAAEWAGWNNEMDYWGQVTQVTVSS	high polyreactivity
QVQLVESGGGLVKAGGSLRLSCASSGSTFVGNAMGWYRQAPGKERELVAAISVNDGTTYYADSVKGRFTISRDNAKNTVYLQMNSLKPEDTAVDYCNVKRYGCRSDYWGQGTQVTVSS	high polyreactivity
QVQLVESGVGLVQAGGSLRLSCAASGSTFWSYTMGWYRQAPGKERELVARIRTTGGSTYADSVKGRFTISRDNAKNTVYLQMNSLKPEDTAVYYCAKEGWLRYYPWYGGDYWGQGTQVTVSS	high polyreactivity
QVQLVESGGGLVQAGGSLRLSCAASGIIFAWYAMGWYRQAPGKERELVAAINWSGGSTYYADSVKGRFTISRDYAKNTVYLQMNSLKPEDTAVYYCARSSRGKLDYWGQGTQVTVSS	low polyreactivity
QVQLVESGGGLVQAGGSLRLSCDASGFTFRVYAMGWYRQAPGKEREFVASIRSNDGRTYYADSVKGRFTISRDNAKNTVYLQLNSLKPEDTAVYYCAARYSPRGKRYDYWGQGTQVTVSS	high polyreactivity
QVQLVESGGGLVQAGGSLRLSCAASGSIFLWYDMGWYRQAPGKEREFVASITRSGGSTYYADSVKGRFTISRDNAKNTVYLQMNSLKPEDTAVYYCAAGRRSSWRYYLWYDYWGQGTQVTVSS	low polyreactivity
QVQLVESGGGFVQAGGSLRLSCAASGRIFYNYAMGWYRQAPGKERELVAAMSGSGGSTYYADSVKGRFTISRDNAKNTVYLQMNSLKPEDTAVYYCSTSGPQYYSRNVDYWGQGTQVTVSS	low polyreactivity

Sequence	polyreactivity (PSR sort gate)
QVQLVESGGGLVQAGGSLRLSCAASGSIFTPYAMGWYRQAPGKERELVAAISSDGSTYYADSVKGRFTISRDNAKNTVYLQMNSLKTEDTAVYYCAAEYSWYYYYLFVGEYDYWGQGTQVTVSS	low polyreactivity
QVQLVESGGGLVQAGGSLRLSCAASGSTFRRYAMGWYRQAPGNERELVAAITGSGGRTYYADSVKGRFTISRDNAKNTVYLQMNSLKPEDTAVYYCAARGTHSRRRYYYWGQGTQVTVSS	high polyreactivity
QVNLVESGGGLVQAGGSLRLSCAASGIIFIAYAMRWYRQAPGKERELVADISIGGSTNYADSVKGRFTISRDNAKNTVYLEMNSLKPEDTAVYYCNAGGGFYGSTVEHDYWGKGTQVTVSS	low polyreactivity
QVQLVESGGGLVQAGGSLRLSCAASGSTFYWNAMGWYRQAPGKERELVAAIRRSSDRTYYADSVKGRFTISRDNAKNTVYLQMNSLKPEDTAVYYCAADAYYTYRLDYWGQGTQVTVSS	high polyreactivity
QVQLVESGGGLGQAGGSLRLSSAASGGTFGSNTMGWYRQAPGKERELVAAITSGVSTYYADSVKGRFTISRDNAKNTVYLQMNSLKPEDTAVYYCAADTTQLQGVEGDYWGQGTQVTVSS	low polyreactivity
QVQLVESGGGLVQAGGSLRLSCAASGRISVYYAMGWYRQGPGKERELVAAISWRGSTYYADSVKGRFTISRDYAKNTVYIQMNSQKPEDTAVYNSAARSTGYYGRFYYWGQGTQVTVSS	high polyreactivity
QVQLVESGGGLVQAGGSLRLSCAASGLIFSSYAMGWYRQAPGKERELVAAISRSGGRTYYADSVKGRFTISRDNAKNTVYLQMNSLKPEDTAVYYCAADRFRSGLDRPEMDYWGQGTQVTVSS	high polyreactivity
QVQLVESGGGLVQAGGSLRLSCAASGFIFSVYAMGGYRQAPGKDTELVAVISTSGGRTYYADSVKGRFTISRDNAKNTVYLQMNSLKPEDTAVYYCAADGFQYTLGNYYWGQGTQVTVSS	high polyreactivity
QVQLVESGGGLVQAGGSLRLSCAASGRIFGSYAMGWYRQAPGKERELVAAISRSGVSTYYADSVKGRFTISRDNAKNTVYLQMNSLKPEDTAVYYCAAYYRYASDYWGQGTQVTVSS	low polyreactivity
QVQLVESGGGLVQAGGSLRLSCAASGSIFSEYAMGWYRQAPGKERELVAAINDGGGSTYYADSVKGRFTISRDNAKNTVYLQMNSLKPEDTAVYYCAAETVRWWWLYDYWGQGTQVTVSS	high polyreactivity
QVQLVESAGGLVQAGGSLRLSCAASGFIFRYNTMGWYRQAPGKERELVATINRSGGSTYYADSVKGRFTISRDNAKNTVYLQMNSLKPEDTAVYYCAAVSLQPYYIAGATWDGDYWGQGTQVTVSS	high polyreactivity
QVQLVESGGGLVQAGGSLRLSCAASGSTFQYYAMGGYIQAPGKQRQLVAAISSGGSTYYADSVKGRFTISRDNAMNTVYLQMNSLKPEDTAVYYCAADGYYSVSRYTSYKYYYWGQGTQVTVSS	high polyreactivity
QVQLVESGGGLVQAGGSLRLSCAASGSIFVSYGMGWYRPAPGKERELVAAISGGGVSTYYADSVKGRFTISRDNAKNTVYLQMNSLIPEDTAVYYCAAEVSFGWGNYGYDYWGQGTQVTVSS	high polyreactivity
QVQLVESGGGLVQAGGRLRLSCAASGRIFSDYAMGWYRQAPGKERELVAVITRGGDNTHYADSVKGRFSISRDNAKNTVYLQMNSLKAEDTAVYYCAAGFVYFRLRRYFWRDYCGQGTQVTVSS	low polyreactivity
QVQLVESGGGLVQAGASLRLSCAASGNTFDVYAMGWYREAPGKERELVAAISRRGGSTSYADSVKGRFTISRDNAKNTFYFHMNSLKPEDTAVYYCNTDPGKYTPFDYLGQGTQVTVSS	high polyreactivity
QVQLQESGGGLMQAGVSQRLSCAASGSISYYSDMGWYRQAPRKEREFVAGIGYGTTTYYADSVKGRFTTSRDNAKNTVYLQMISMKPEDTAVYYCAAYQGNGYEFYYWGQGTQVTVRS	low polyreactivity
